In data set [1] the target is T1, PARLSkd3 (human CLPB) (Homo sapiens, UniProt Q9H078).
T1 sequence (Q9H078 127-707): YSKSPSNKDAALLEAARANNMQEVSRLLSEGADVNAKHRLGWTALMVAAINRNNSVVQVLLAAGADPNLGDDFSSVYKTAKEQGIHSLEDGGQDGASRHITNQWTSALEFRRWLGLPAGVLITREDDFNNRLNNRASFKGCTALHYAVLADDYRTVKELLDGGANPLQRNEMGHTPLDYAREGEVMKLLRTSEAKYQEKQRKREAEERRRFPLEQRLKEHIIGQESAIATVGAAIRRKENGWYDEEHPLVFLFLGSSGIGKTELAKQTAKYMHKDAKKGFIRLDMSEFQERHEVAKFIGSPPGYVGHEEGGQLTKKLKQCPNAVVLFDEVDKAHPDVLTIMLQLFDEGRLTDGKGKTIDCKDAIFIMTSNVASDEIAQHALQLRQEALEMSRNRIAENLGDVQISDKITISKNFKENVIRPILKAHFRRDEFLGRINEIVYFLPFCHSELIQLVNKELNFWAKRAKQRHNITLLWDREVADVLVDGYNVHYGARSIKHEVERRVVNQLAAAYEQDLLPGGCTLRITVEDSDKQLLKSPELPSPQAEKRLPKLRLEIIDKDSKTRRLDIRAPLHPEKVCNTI
It counts as biochemical.

Data set [2] deals with _(PARL)Skd3^Δ1-2 (ankyrin repeats 1 and 2 deleted, ΔY127-G196) (human). In words: cryo-EM structure.
The target is the same in data set [3]. The data set can be described thus: SEC. On the technique in general: SEC sorts molecules by how far they enter the pores of the column.
In data set [4] the target is _(PARL)Skd3^NBD (human). In words: cryo-EM structure.
Data set [5] deals with the molecule itself. The data set can be described thus: SEC.
The target in data set [6] is Casein fluorescein isothiocyanate from bovine milk (FITC-casein) (bovine). The data set can be described thus: fluorescence polarisation.
The target is the same in data set [7]. In words: fluorescence polarisation. The source holds these as a separate data set. (In general: In fluorescence polarisation assays a small probe gives low polarisation when free and higher when bound to something large.)
For data set [8] the target is unchanged. The data set can be described thus: fluorescence polarisation. The source holds these as a separate data set.
Data set [9] deals with the molecule itself. The data set can be described thus: SEC. This is another data set of the same source.
The target of data set [10] is T2, PARL-protease-activated Skd3 (human CLPB), wild type (human, UniProt Q9H078 127-707).
T2 sequence (looked up): T1 sequence (Q9H078 127-707)
The data set can be described thus: FRET or BRET. A general note: BRET reads energy transfer from a luciferase to a nearby fluorophore.

Consider 15 molecules from article PMC9584538 (Cell reports, 2022).

Substitutions are numbered along the chain they refer to. Names may count otherwise. “And” between values parts separate entries of the source, which are not always exact repeats. Equal values may be shown once. Read-outs that look alike come from different tables or passages of the source.

Chain of Casein fluorescein isothiocyanate from bovine milk (FITC-casein) (bovine) (P02662 16-214): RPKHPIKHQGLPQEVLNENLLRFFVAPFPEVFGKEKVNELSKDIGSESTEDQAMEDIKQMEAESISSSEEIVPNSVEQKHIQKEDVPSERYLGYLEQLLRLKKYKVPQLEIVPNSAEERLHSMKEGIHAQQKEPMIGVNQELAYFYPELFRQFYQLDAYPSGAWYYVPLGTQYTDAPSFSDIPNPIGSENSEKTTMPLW

One may read the IC50 as the concentration that gives 50% inhibition. In data set [1], `Nc1ncnc2c1ncn2[C@@H]1O[C@H](COP(=O)(O)OP(=O)(O)O)[C@@H](O)[C@H]1O` [ADP] had an IC50 of roughly 1200 µM. The term stoichiometry N denotes the number of molecules, sites or subunits per partner or assembly. Regarding “_(PARL)Skd3^Δ1-2 (ankyrin repeats 1 and 2 deleted, ΔY127-G196) (enzyme)”, the values for the stoichiometry N in data set [2] and in data set [3] were 18 and 12, respectively. In turn, `Nc1ncnc2c1ncn2[C@@H]1O[C@H](CO[P@](=O)(O)O[P@](=O)(O)O[P@@](=O)(O)S)[C@@H](O)[C@H]1O` [ATPγS] had an IC50 in [1] of roughly 242 µM. Molecule _(PARL)Skd3^NBD (domain or fragment) displayed a stoichiometry N in [4] of 6.

B1: _(PARL)Skd3^ΔL (ANK linker deleted, ΔD197-A262) (enzyme, human, UniProt Q9H078 127-707, looked up)
chain: YSKSPSNKDAALLEAARANNMQEVSRLLSEGADVNAKHRLGWTALMVAAINRNNSVVQVLLAAGADPNLGSFKGCTALHYAVLADDYRTVKELLDGGANPLQRNEMGHTPLDYAREGEVMKLLRTSEAKYQEKQRKREAEERRRFPLEQRLKEHIIGQESAIATVGAAIRRKENGWYDEEHPLVFLFLGSSGIGKTELAKQTAKYMHKDAKKGFIRLDMSEFQERHEVAKFIGSPPGYVGHEEGGQLTKKLKQCPNAVVLFDEVDKAHPDVLTIMLQLFDEGRLTDGKGKTIDCKDAIFIMTSNVASDEIAQHALQLRQEALEMSRNRIAENLGDVQISDKITISKNFKENVIRPILKAHFRRDEFLGRINEIVYFLPFCHSELIQLVNKELNFWAKRAKQRHNITLLWDREVADVLVDGYNVHYGARSIKHEVERRVVNQLAAAYEQDLLPGGCTLRITVEDSDKQLLKSPELPSPQAEKRLPKLRLEIIDKDSKTRRLDIRAPLHPEKVCNTI
On to B1, for which, in data set [5], the “stoichiometry N” value was 12 and 6.

B2: _(PARL)Skd3^ΔL507-I534 (NBD insertion deleted) (enzyme, human, UniProt Q9H078 127-707, looked up)
chain: YSKSPSNKDAALLEAARANNMQEVSRLLSEGADVNAKHRLGWTALMVAAINRNNSVVQVLLAAGADPNLGDDFSSVYKTAKEQGIHSLEDGGQDGASRHITNQWTSALEFRRWLGLPAGVLITREDDFNNRLNNRASFKGCTALHYAVLADDYRTVKELLDGGANPLQRNEMGHTPLDYAREGEVMKLLRTSEAKYQEKQRKREAEERRRFPLEQRLKEHIIGQESAIATVGAAIRRKENGWYDEEHPLVFLFLGSSGIGKTELAKQTAKYMHKDAKKGFIRLDMSEFQERHEVAKFIGSPPGYVGHEEGGQLTKKLKQCPNAVVLFDEVDKAHPDVLTIMLQLFDEGRLTDGKGKTIDCKDAIFIMTSNVASDEIAQHATISKNFKENVIRPILKAHFRRDEFLGRINEIVYFLPFCHSELIQLVNKELNFWAKRAKQRHNITLLWDREVADVLVDGYNVHYGARSIKHEVERRVVNQLAAAYEQDLLPGGCTLRITVEDSDKQLLKSPELPSPQAEKRLPKLRLEIIDKDSKTRRLDIRAPLHPEKVCNTI
On to B2, for which, in data set [5], the “stoichiometry N” value was found to be 12.

B3: PARL-protease-activated Skd3 (human CLPB), wild type (enzyme)
chain: T1 sequence (Q9H078 127-707)
What is called Kd is the equilibrium constant for the complex coming apart. Higher therefore signals lower affinity. Regarding B3, the Kd was found to be 400 nM in data set [6], 100 nM in data set [7] and 500 nM in data set [8].

B4: _(PARL)Skd3^A591V (MGCA7-linked variant) (enzyme, human, UniProt Q9H078 127-707, looked up)
chain: T1 sequence (Q9H078 127-707) with A465V
As to B4, the “stoichiometry N” value in [9] was 6 and 12. Moreover, the binding result in [10] is listed as “binds”.

B5: _(PARL)Skd3^R475Q (MGCA7-linked variant) (enzyme, human, UniProt Q9H078 127-707, looked up)
chain: T1 sequence (Q9H078 127-707) with R349Q
For the molecule B5, the “stoichiometry N” value in data set [9] was determined as 12. Also, the binding result in [10] is recorded as “binds”.

B6: _(PARL)Skd3^R561G (SCN-linked variant, Arg finger) (enzyme, human, UniProt Q9H078 127-707, looked up)
chain: T1 sequence (Q9H078 127-707) with R435G
Consider B6, for which, in [9], the “stoichiometry N” value is 12. Moreover, the binding result in [10] is given as “binds”.

B7: _(PARL)Skd3^N496K (SCN-linked variant, sensor-1) (enzyme, human, UniProt Q9H078 127-707, looked up)
chain: T1 sequence (Q9H078 127-707) with N370K
On to B7, for which the “stoichiometry N” value in data set [9] worked out at 6. The binding result in data set [10] is listed as “binds”.

B8: _(PARL)Skd3^R620C (SCN-linked variant, sensor-2) (enzyme, human, UniProt Q9H078 127-707, looked up)
chain: T1 sequence (Q9H078 127-707) with R494C
As for B8, in data set [9], the “stoichiometry N” value is 12. Further, the binding result in data set [10] was “binds”.

B9: _(PARL)Skd3^R408G (MGCA7-linked variant) (enzyme, human, UniProt Q9H078 127-707, looked up)
chain: T1 sequence (Q9H078 127-707) with R282G
Consider B9, for which, in data set [9], the “stoichiometry N” value amounted to 12. Moreover, the binding result in data set [10] is recorded as “binds”.

B10: _(PARL)Skd3^K387A (Walker A) (enzyme, human, UniProt Q9H078 127-707, looked up)
chain: T1 sequence (Q9H078 127-707) with K261A
Take B10: the binding result in data set [10] is on record as “binds”.

B11: _(PARL)Skd3^Δ3-4 (ankyrin repeats 3 and 4 deleted, ΔS263-K325) (enzyme, human, UniProt Q9H078 127-707, looked up)
chain: YSKSPSNKDAALLEAARANNMQEVSRLLSEGADVNAKHRLGWTALMVAAINRNNSVVQVLLAAGADPNLGDDFSSVYKTAKEQGIHSLEDGGQDGASRHITNQWTSALEFRRWLGLPAGVLITREDDFNNRLNNRAQRKREAEERRRFPLEQRLKEHIIGQESAIATVGAAIRRKENGWYDEEHPLVFLFLGSSGIGKTELAKQTAKYMHKDAKKGFIRLDMSEFQERHEVAKFIGSPPGYVGHEEGGQLTKKLKQCPNAVVLFDEVDKAHPDVLTIMLQLFDEGRLTDGKGKTIDCKDAIFIMTSNVASDEIAQHALQLRQEALEMSRNRIAENLGDVQISDKITISKNFKENVIRPILKAHFRRDEFLGRINEIVYFLPFCHSELIQLVNKELNFWAKRAKQRHNITLLWDREVADVLVDGYNVHYGARSIKHEVERRVVNQLAAAYEQDLLPGGCTLRITVEDSDKQLLKSPELPSPQAEKRLPKLRLEIIDKDSKTRRLDIRAPLHPEKVCNTI
For B11, the “stoichiometry N” value in data set [5] was found to be 12.
